Legend:
[1] = target: Human FcRn (neonatal Fc receptor for IgG) (human) (UniProt P55899); assay: ITC; 15 uM FcRn in the sample cell, titrated with 100 uM mAb from the syringe (9 injections of 3 uL); 25 °C; 1 x PBS, pH 6.0; independent fit model
hGHbp ECD (Homo sapiens) = hGHbp ECD (Homo sapiens) (UniProt P10912); assay: SPR; conditions: cited from earlier work
Sequence of UniProt P10912 (P10912 19-256): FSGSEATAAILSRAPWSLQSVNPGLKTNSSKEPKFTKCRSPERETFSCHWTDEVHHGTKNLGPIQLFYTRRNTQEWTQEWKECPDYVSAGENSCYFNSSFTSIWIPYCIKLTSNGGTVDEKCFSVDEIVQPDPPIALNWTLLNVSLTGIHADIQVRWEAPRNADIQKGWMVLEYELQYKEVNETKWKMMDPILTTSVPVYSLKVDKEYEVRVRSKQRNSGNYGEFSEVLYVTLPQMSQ

Sequence of UniProt P55899 (P55899 whole entry, looked up, the tested form may be a part): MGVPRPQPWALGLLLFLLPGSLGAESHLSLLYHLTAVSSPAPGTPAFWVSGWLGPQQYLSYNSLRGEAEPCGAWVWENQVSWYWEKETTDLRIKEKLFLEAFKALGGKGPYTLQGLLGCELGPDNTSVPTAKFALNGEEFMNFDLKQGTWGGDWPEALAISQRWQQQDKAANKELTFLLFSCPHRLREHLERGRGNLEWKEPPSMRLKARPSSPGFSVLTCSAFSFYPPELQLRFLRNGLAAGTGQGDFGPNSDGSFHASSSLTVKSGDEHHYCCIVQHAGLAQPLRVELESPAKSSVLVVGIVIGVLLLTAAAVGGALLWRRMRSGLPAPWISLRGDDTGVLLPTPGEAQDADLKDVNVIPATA

| Substance | dH [1] [kcal/mol] | Kd (hGHbp ECD (Homo sapiens)) [nM] |
| --- | --- | --- |
| YTE mutant IgG mAb (IgGA-YTE) (antibody) | -12 |  |
| hGHwt (from UniProt P01241) |  | 1.2 |
| wildtype IgG mAb (IgGAwt) (antibody) | -5.5 |  |

From paper PMC12384571
